In patent US20220259593A1, “CONTROL OF MAMMALIAN GENE DOSAGE USING CRISPR” (The Regents of the University of California, priority 2019, published 2022) one finds Mean relative activity data, which are given here for 29 molecules.

This data set has as its system K562 CRISPRi cells. Briefly: Constant region variant library pooled growth screen, K562. To be noted: sgRNA constant region variants. Format: cell-based, human. In outline:
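Pooled library transduced into K562 CRISPRi cells in duplicate, puromycin-selected, grown at >2000× coverage and sampled after 4 to 8 days. Phenotypes per targeting sequence:constant region pair were normalized to the unmodified-scaffold pairing to give relative activity.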

Setting [1] is: activity relative to the unmodified constant region cr995.

B1: cr218 (nucleic acid)
guide: GTTTAAGAGCTAAGCTGGAAACAGCATAGCAATTTTAAATAAGGCTAGTCCGTTATCAACTTAAACAAGTGGCACCGAGTCGGTGCT
modifications: listed as DNA, chemistry not fully specified
In turn, B1 displayed a Mean relative activity under setting [1] of 0.207.

B2: cr294 (nucleic acid)
guide: GTTTAAGAGCTAAGCTGGAAACAGCATAGCAAGTTTAAATAAGAATATTTCGTTATCAACTTGAAAAAGTGGCACCGAGTCGGTGCT
modifications: listed as DNA, chemistry not fully specified
In turn, B2 came in with a Mean relative activity under setting [1] of 0.1883.

B3: cr683 (nucleic acid)
guide: GTTTAAGAGCTAAGCTGGAAACAGCATAGCAAGTTTAAATAAGGCTAGTTCGTTATGAACTTGAAAAAGTGGCACCGAGTCGGTGCT
modifications: listed as DNA, chemistry not fully specified
B3 returned a Mean relative activity under setting [1] of 0.1568.

B4: cr826 (nucleic acid)
guide: GTTTAAGAGCTAAGCTGGAAACAGCATAGCAATTTTAAATAAGGCTAGCCCGTTTTCAACTTGAAAAAGTGGCACCGAGTCGGTGCT
modifications: listed as DNA, chemistry not fully specified
With B4, the Mean relative activity under setting [1] was determined as 0.1633.

B5: cr452 (nucleic acid)
guide: GTTTAAGAGCTAAGCTGGAAACAGCATAGCAAATTTAAATAAGGCTAGTCCGTTATAAACTTGAAAAAGTGGCACCGAGTCGGTGCT
modifications: listed as DNA, chemistry not fully specified
As to B5, the Mean relative activity under setting [1] is given as 0.1813.

B6: cr476 (nucleic acid)
guide: GTTTAAGAGCTAAGCTGGAAACAGCATAGCAAGTTTAAATAAGGCTAGTCCGTTATCAACTTGAAAAAGTGCGACCGAGTCGGTCGT
modifications: listed as DNA, chemistry not fully specified
B6 yielded a Mean relative activity (activity relative to the original, un-modified constant region cr995) of 1.039.

B7: cr900 (nucleic acid)
guide: GTTTAAGAGCTAAGCTGGAAACAGCATAGCAAGTTGAAATAAGGCTAGTCCGTTATCAACTTGAAAAAGTGGCACCGAGTCGGTGCT
modifications: listed as DNA, chemistry not fully specified
Molecule B7 yielded a Mean relative activity under setting [1] of 0.1846.

B8: cr230 (nucleic acid)
guide: GTTTAAGAGCTAAGCTGGAAACAGCATAACAAGTTTAAATAAGGCTAGTCCATTATCAACTTGAACAAGTGGCACCGAGTCGGTGCT
modifications: listed as DNA, chemistry not fully specified
The molecule B8 displayed a Mean relative activity under setting [1] of 0.1598.

B9: cr812 (nucleic acid)
guide: GTTTAAGAGCTAAGCTGGAAACAGCATAGCAAGTTTAAATAAGGCTACTCCGTTATCAACTTGAAAAAGTGGCACCGAGTCGGTGCT
modifications: listed as DNA, chemistry not fully specified
With B9, the Mean relative activity under setting [1] is 0.1766.

B10: cr732 (nucleic acid)
guide: GTTTAAGAGCTAAGCTGGAAACAGCATAGCAAGTTTAAATAGGGCTAGTCCGGTATCAACTTGAAAAAGTCGCACCGAGTCGGTGCT
modifications: listed as DNA, chemistry not fully specified
Regarding B10, the Mean relative activity under setting [1] came out at 0.1926.

B11: cr090 (nucleic acid)
guide: GTTTTATAGCTAAGCTGGAAACAGCATAGCAAGTTTAAATAAGGCTAGTCCGTTATCAACTTGAAAAAGTGGCACCGAGTCGGTGCT
modifications: listed as DNA, chemistry not fully specified
B11 registered a Mean relative activity under setting [1] of 0.1865.

B12: cr047 (nucleic acid)
guide: GTTTTAGTGCTAAGCTGGAAACAGCATAGCAAGTTTAAATAAGGCTAGTCCGTTATCAACTTGAAAAAGTGGCACCGAGTCGGTGCT
modifications: listed as DNA, chemistry not fully specified
Turning to B12, the Mean relative activity under setting [1] stood at 0.1686.

B13: cr063 (nucleic acid)
guide: ATTTTAGAGCTAAGCTGGAAACAGCATAGCAAGTTTAAATAAGGCTAGTCCGTTATCAACTTGAAAAAGTGGCACCGAGTCGGTGCT
modifications: listed as DNA, chemistry not fully specified
B13 displayed a Mean relative activity under setting [1] of 0.1565.

B14: cr544 (nucleic acid)
guide: GTTTAAGAGCTAAGCTGGAAACAGCATAGCAACTTTAAATAAGGCTAGTCCGTTATCAACTCGAAAGAGTGGCACCGAGTCGGTGCT
modifications: listed as DNA, chemistry not fully specified
Take B14: under setting [1], the Mean relative activity was 0.1605.

B15: cr221 (nucleic acid)
guide: GTTTAAGAGCTAAGCTGGAAACAGCATAGCAAATTTAAATAAGGCTAGTCCGTTATGAACTTGAGAAAGTGGCACCGAGTCGGTGCT
modifications: listed as DNA, chemistry not fully specified
With B15, under setting [1], the Mean relative activity is on record as 0.1553.

B16: cr429 (nucleic acid)
guide: GTTTAAGAGCTAAGCTGGAAACAGCATAGCAAGTTTAAATAAGAATATTTCGTTATCAACTTGAAAAAGTGGCAACGAGTCGTTGCT
modifications: listed as DNA, chemistry not fully specified
B16 had a Mean relative activity under setting [1] of 0.196.

B17: cr979 (nucleic acid)
guide: GTTTAAGAGCTAAGCTGGAAACAGCATAGCAAGTTTAAATAAGGCTAGTCCGGTATCTACTTGAAAAAGTGGCACCGAGTCGGTGCT
modifications: listed as DNA, chemistry not fully specified
In turn, B17 gave a Mean relative activity under setting [1] of 0.1765.

B18: cr075 (nucleic acid)
guide: GTTTCATAGCTAAGCTGGAAACAGCATAGCAAGTTTAAATAAGGCTAGTCCGTTATCAACTTGAAAAAGTGGCACCGAGTCGGTGCT
modifications: listed as DNA, chemistry not fully specified
For B18, under setting [1], the Mean relative activity was found to be 0.1521.

B19: cr502 (nucleic acid)
guide: GTTTAAGAGCTAAGCTGGAAACAGCATAGCAAGTTTAAATAAGGCTAGTCCGTTATCAACTTGAAAAAGTGGCACCGAGTCGCTGCT
modifications: listed as DNA, chemistry not fully specified
As to B19, the Mean relative activity under setting [1] came to 0.1485.

B20: cr373 (nucleic acid)
guide: GTTTAAGAGCTAAGCTGGAAACAGCATAGCAAGCTTAAATAAGGCTAGTCCGTTATCAACTTGAAAAAGTGGCAGCGAGTCGCTGCT
modifications: listed as DNA, chemistry not fully specified
Consider B20, for which the Mean relative activity under setting [1] is listed as 0.1993.

B21: cr605 (nucleic acid)
guide: GTTTAAGAGCTAAGCTGGAAACAGCATAGCAAGTTTAAATAAGGATATTCCGTTATCAACTTGAAAAAGTGGCACCCAGTGGGTGCT
modifications: listed as DNA, chemistry not fully specified
B21 displayed a Mean relative activity under setting [1] of 0.1839.

B22: cr185 (nucleic acid)
guide: GTTTAAGAGCTAAGCTGGAAACAGCATAGCAAGTTTAAATAAGGCTAGTCCGTTATCAACTTGAAAAAGTGGCACCGAGTAGGTGCT
modifications: listed as DNA, chemistry not fully specified
B22 showed a Mean relative activity under setting [1] of 0.1755.

B23: cr760 (nucleic acid)
guide: GTTTAAGAGCTAAGCTGGAAACAGCATAGCAGGTTTAAATCAGGCTAGTCCGTTATCAACTTGATAAAGTGGCACCGAGTCGGTGCT
modifications: listed as DNA, chemistry not fully specified
B23: the Mean relative activity under setting [1] turned out to be 0.1909.

B24: cr029 (nucleic acid)
guide: GTTTCAGGGCTAAGCTGGAAACAGCATAGCAAGTTTAAATAAGGCTAGTCCGTTATCAACTTGAAAAAGTGGCACCGAGTCGGTGCT
modifications: listed as DNA, chemistry not fully specified
As for B24, under setting [1], the Mean relative activity amounted to 0.1663.

B25: cr229 (nucleic acid)
guide: GTTTAAGAGCTAAGCTGGAAACAGCATAGCAAGTTTAAATACGGCTAGTCCGTTATCAACTTGAAAAAGTGGCACCGAGTCGGTGCT
modifications: listed as DNA, chemistry not fully specified
Molecule B25 displayed a Mean relative activity under setting [1] of 0.1478.

B26: cr311 (nucleic acid)
guide: GTTTAAGAGCTAAGCTGGAAACAGCATAGCAAGTTTAAATAAGGCTTGTCCGTTATATACTTGAAAAAGTGGCACCGAGTCGGTGCT
modifications: listed as DNA, chemistry not fully specified
In the case of B26, under setting [1], the Mean relative activity turned out to be 0.179.

B27: cr347 (nucleic acid)
guide: GTTTAAGAGCTAAGCTGGAAACAGCATAGCAAGCTTAAATAAGCCTAGTGCGTTATCAACTTGAAAAAGTGGCACCGAGTCGGTGCT
modifications: listed as DNA, chemistry not fully specified
On to B27, for which the Mean relative activity under setting [1] came out at 0.1915.

B28: cr447 (nucleic acid)
guide: GTTTAAGAGCTAAGCTGGAAACAGCATAGCAAGCTTAAATAAGGCTAGTCCGTTATCAACTTGAAAAAGTGGCACCAAGTTGGTGCT
modifications: listed as DNA, chemistry not fully specified
Under setting [1], B28 showed a Mean relative activity of 0.1616.

B29: cr618 (nucleic acid)
guide: GTTTAAGAGCTAAGCTGGAAACAGCATAGCAAGTTTAAGTAAGGCTAGTCCGTTATCAACTTGAAAAAGTGGCACCGAGTCGGTGCT
modifications: listed as DNA, chemistry not fully specified
On to B29, for which the Mean relative activity under setting [1] came out at 0.1571.
